The supplement of paper PMC9732359
± gives the uncertainty stated by the source.

Assay: protein stability index of a GFP-peptide fusion (yeast GPS) (PSI 1-4); higher = more stable; sorted into four equal gates, so the index is relative within each strain
Outline: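 Tiled 17-residue yeast protein peptides were fused downstream of GFP in a plasmid that also expresses Cherry, and the pooled library was carried in yeast. Mid-log cultures in leucine-free medium were sorted into four equal gates by GFP/Cherry fluorescence ratio, and plasmids from each gate were PCR-amplified and Illumina-sequenced, with reads assigned to strains by barcodes. The protein stability index for each peptide was each gate's read frequency times its gate number, summed.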

Row | Sequence | protein stability index (doa10∆) | protein stability index (pdr5∆) | protein stability index (san1∆) | protein stability index (ubr1∆)
1 | LLVNPDIDLETYSFIDN [YML103C/NUP188] | 2.79 ± 0.059 | 2.6 ± 0.048 | 2.66 ± 0.056 | 2.6 ± 0.038
2 | LLVPASDLINKDLVKNN [FAS1] | 1.76 ± 0.086 | 2.95 ± 0.097 | 3.11 ± 0.12 | 2.83 ± 0.11
3 | LLVPLALLTKRLYPHWD [CSN12] | 2.33 ± 0.066 | 2.01 ± 0.063 | 1.83 ± 0.092 | 1.5 ± 0.037
4 | LLYELTAFKATVFFLIR [YJL039C/NUP192] | 2.32 ± 0.071 | 2.36 ± 0.09 | 1.82 ± 0.077 | 2.43 ± 0.063
5 | LMCLSSKYCEKSLPLLI [YCS4] | 2.45 ± 0.1 | 2.71 ± 0.076 | 2.39 ± 0.089 | 2.39 ± 0.052
6 | LMQNMMNMFGGGMGGGM [SRP54] | 1.85 ± 0.16 | 2.53 ± 0.063 | 2.47 ± 0.17 | 2.27 ± 0.081
7 | LMSCISVGTDPMPIITF [RPB2] | 2.26 ± 0.086 | 1.71 ± 0.056 | 2.28 ± 0.05 | 2.18 ± 0.054
8 | LMTSHTKGDTSKATGAP [RTT102] | 3.12 ± 0.068 | 3.34 ± 0.079 | 3.27 ± 0.059 | 3.17 ± 0.06
9 | LNAANYNIDANVIDTQR [ECM29] | – | 2.37 ± 0.15 | 3.18 ± 0.12 | 2.85 ± 0.12
10 | LNCGNGMGIGFIDHHAA [POP1] | 3.33 ± 0.086 | 3.13 ± 0.07 | 3.33 ± 0.07 | 3.42 ± 0.046
11 | LNEEAVIFLSSLLTLVG [YJL039C/NUP192] | 2.52 ± 0.076 | 2.72 ± 0.086 | 2.3 ± 0.11 | 2.9 ± 0.088
12 | LNELYQTQQDLPKVRYN [NSL1] | 3.1 ± 0.042 | 3.12 ± 0.052 | 2.96 ± 0.039 | 3.03 ± 0.038
13 | LNESDCLEACSFILSSL [YDL116W/NUP84] | 2.62 ± 0.056 | 2.58 ± 0.052 | 2.96 ± 0.052 | 2.65 ± 0.041
14 | LNGREVKAILMQRHVKV [RPS4A] | 1.23 ± 0.081 | 1.25 ± 0.063 | 1.39 ± 0.21 | 1.24 ± 0.051
15 | LNIRIQTYGETTAVDAL [RPC19] | 2.02 ± 0.12 | 1.09 ± 0.11 | 1.19 ± 0.28 | 1.15 ± 0.077
16 | LNKGKKVTSMTPAPKIS [RPL36A] | – | 2.98 ± 0.14 | – | 3.15 ± 0.12
17 | LNLKFKEKWPSLELQSF [YML103C/NUP188] | 2.72 ± 0.097 | 2.54 ± 0.14 | 1.92 ± 0.11 | 2.05 ± 0.19
18 | LNLPLQFSLPNGDNSTT [SNF12] | 2.48 ± 0.047 | 1.99 ± 0.043 | 2.283 ± 0.013 | 2.08 ± 0.038
19 | LNNTHVISSGPLAAGNF [RPC53] | 2.74 ± 0.086 | 3 ± 0.1 | 2.69 ± 0.074 | 2.49 ± 0.049
20 | LNRQNDITDGKDYHTLA [RPS18A] | 3.13 ± 0.069 | 3.33 ± 0.061 | 3.27 ± 0.05 | 3.11 ± 0.06
21 | LNSTLESLYDLIEFQPS [MED6] | 2.8 ± 0.049 | 2.85 ± 0.046 | 2.88 ± 0.039 | 2.76 ± 0.048
22 | LNTLFNPVTLNEDSKAF [NUT1] | 2.57 ± 0.062 | 1.84 ± 0.057 | 1.65 ± 0.091 | 1.92 ± 0.043
23 | LNVAEIITSGRDTREVL [ARP9] | 3.35 ± 0.14 | 3.25 ± 0.089 | 3.44 ± 0.051 | 3.43 ± 0.081
24 | LNVKCTRNPDAPKGSTD [RPC40] | 3.19 ± 0.095 | 3.1 ± 0.11 | 3.04 ± 0.064 | 3.06 ± 0.12
25 | LNVPVFQIVIEPLAIAL [ARP7] | 1.65 ± 0.052 | 1.66 ± 0.055 | 1.48 ± 0.078 | 1.25 ± 0.045
26 | LNVSNTKENGDFTLPED [PRP8] | 2.98 ± 0.1 | 3.14 ± 0.11 | 3.12 ± 0.049 | 3.21 ± 0.069
27 | LPGELAKHAVSEGTRAV [HTB1] | 3.22 ± 0.11 | 3.46 ± 0.12 | 3.42 ± 0.071 | 3.31 ± 0.088

Row | Sequence | protein stability index (doa10∆) | protein stability index (pdr5∆) | protein stability index (san1∆) | protein stability index (ubr1∆)
28 | LPLLYNFNPDNGFAPIS [FAS1] | 2.03 ± 0.12 | 2.63 ± 0.054 | 2.47 ± 0.093 | 2.72 ± 0.068
29 | LPLQPIEIDYTVRVDKA [SNF12] | 2.39 ± 0.061 | 2.19 ± 0.055 | 2.08 ± 0.064 | 2.27 ± 0.045
30 | LPNETINDRNDRAIRKT [DIS3] | – | – | – | 2.29 ± 0.11
31 | LPPEKIYSPLHSFIKML [SIR2] | 1.65 ± 0.034 | 1.88 ± 0.032 | 1.72 ± 0.05 | 1.71 ± 0.032
32 | LPQFRSSIQESLLSLVG [ECM29] | 1.87 ± 0.067 | 2.04 ± 0.048 | 1.7 ± 0.1 | 1.65 ± 0.054
33 | LPRELPKLLDALNKISK [SNU114] | 2.65 ± 0.072 | 2.74 ± 0.083 | 2.84 ± 0.077 | 2.88 ± 0.062
34 | LPTDGGLTSRLQRQQRK [POP4] | 2.95 ± 0.16 | 3.3 ± 0.17 | 3.13 ± 0.12 | 3.38 ± 0.12
35 | LPYAIAGSGSTFIYGYC [PRE3] | 2.13 ± 0.14 | 1.42 ± 0.084 | 2.26 ± 0.12 | 2.29 ± 0.085
36 | LPYPTYWSDKKADTDTL [SNF5] | 2.91 ± 0.11 | 2.92 ± 0.11 | 3.1 ± 0.07 | 2.88 ± 0.059
37 | LQCISQINQGVPSAKPL [SNF11] | 2.98 ± 0.092 | 1.95 ± 0.081 | 2.5 ± 0.083 | 2.41 ± 0.074
38 | LQDDEDHKFPIRENKVT [BRN1] | 2.7 ± 0.1 | 3.07 ± 0.083 | 2.75 ± 0.074 | 2.38 ± 0.095
39 | LQESINHVMYTEVSRKS [ECM29] | 2.47 ± 0.054 | 2.74 ± 0.062 | 2.47 ± 0.077 | 2.51 ± 0.035
40 | LQGEVENIAQMKPKAEK [SMC4] | 3.02 ± 0.15 | 3.4 ± 0.12 | 3.19 ± 0.075 | 3.11 ± 0.075
41 | LQIAQLTLKHRQNKVQH [RPN10] | 2.26 ± 0.088 | 2.23 ± 0.071 | 1.74 ± 0.1 | 1.88 ± 0.065
42 | LQIHSRKMTTDDDINWQ [RPT5] | 3.09 ± 0.14 | 3.12 ± 0.093 | 2.93 ± 0.12 | 3.06 ± 0.063
43 | LQIKRDVLDDLYRKLQR [CSE2] | 2.94 ± 0.072 | 3.11 ± 0.069 | 3.01 ± 0.085 | 3.35 ± 0.055
44 | LQILAMLLLNIFISSDH [YMR129W/POM152] | 1.72 ± 0.058 | 1.36 ± 0.061 | 1.35 ± 0.08 | 1.13 ± 0.05
45 | LQKRVIEHNLRVISEYY [RPN5] | 2.02 ± 0.12 | 2.27 ± 0.11 | 2.77 ± 0.069 | 1.37 ± 0.095
46 | LQLETPAEVGRAIRSEK [BRR2] | 2.08 ± 0.11 | 2.92 ± 0.063 | 1.66 ± 0.11 | –
47 | LQPLEEGLIIDTDKLPI [SIN4] | 2.73 ± 0.097 | 2.79 ± 0.074 | 2.75 ± 0.066 | 2.96 ± 0.061
48 | LQRDLIQTKEQVSINSN [YIL149C/MLP2] | 2.78 ± 0.072 | 3.12 ± 0.089 | 3.11 ± 0.065 | 3.27 ± 0.059
49 | LQRTILNRIINHMLIDS [RGR1] | 2.76 ± 0.057 | 2.4 ± 0.081 | 2.21 ± 0.093 | 1.72 ± 0.066
50 | LQYLDKHIKNLEDDSLL [RPN12] | 3.44 ± 0.068 | 3.42 ± 0.081 | 3.35 ± 0.063 | 3.3 ± 0.049
51 | LRAIEKNDDNSCRNPEH [YIL149C/MLP2] | 3.19 ± 0.16 | 3.25 ± 0.088 | 3.27 ± 0.13 | 3.15 ± 0.14
52 | LRDYTTVPRIVQLLSKS [RPN2] | 1.62 ± 0.046 | 1.98 ± 0.053 | 2.26 ± 0.1 | 1.73 ± 0.045
53 | LRELSCCINAAFLALVD [RRP46] | 2.38 ± 0.059 | 2.81 ± 0.074 | 2.88 ± 0.051 | 2.65 ± 0.065
54 | LREYLNLPEHIVPGTYI [RPS10A] | 3.08 ± 0.078 | 3.08 ± 0.064 | 2.82 ± 0.056 | 2.75 ± 0.059
